Results: patent US20020077289A1, “Angiostatin and endostatin binding proteins and methods of use” (priority 2000, published 2002)

Experiments:
[1] = test system: primary cultures of pericytes; assay: Proliferation of PDGF-BB or 20% fetal calf serum stimulated pericytes (thymidine incorporation, MTT); assay type: cell-based
From the text: Endostatin protein results in an inhibition of proliferation of PDGF-BB or 20% fetal calf serum stimulated primary cultures of pericytes and to a lesser extent fibroblasts. […] The results have been confirmed using a MTT proliferation kit.
Endostatin protein tends to have a greater effect on cells in the earlier stages of differentiation. While such cells constitute a small fraction of the total number, inhibiting their proliferation may have significant effects on the final total cell number. Endostatin protein's effect on cells early in the differentiation pathway results in a reduction of 70-80% of the final cell number. Endostatin protein also changes the morphology of these cells (data not shown).

wound healing = settings: in vivo; cited from earlier work
mammary tumor = settings: i.v. technetium (99mTc) labeled rhEndostatin, 100 μCi/rat; personal communication; cited from earlier work
B16-BL6 melanoma cells [2] = assay: B16-BL6 experimental metastasis assay; assay type: in vivo, C57BL/6J mice; settings: dose of 1.3 nmol rhEndostatin
[3] = parenteral administration; cited from earlier work
[4] = target: T1, rhTM3 (human tropomyosin isoform 3) (Homo sapiens, UniProt P09493); assay: Surface plasmon resonance (BIAcore) binding to immobilized rhTM3; settings: steady state model; soluble rhEndostatin over immobilized rhTM3 (3200 RU); 25° C; read-out: dissociation constant (KD) for the rhEndostatin/rhTM3 interaction
T1 construct: made in house; host or cells: E. coli BL21 (DE3), pET-21a(+)
T1 sequence (P09493 1-284 isoform P09493-3): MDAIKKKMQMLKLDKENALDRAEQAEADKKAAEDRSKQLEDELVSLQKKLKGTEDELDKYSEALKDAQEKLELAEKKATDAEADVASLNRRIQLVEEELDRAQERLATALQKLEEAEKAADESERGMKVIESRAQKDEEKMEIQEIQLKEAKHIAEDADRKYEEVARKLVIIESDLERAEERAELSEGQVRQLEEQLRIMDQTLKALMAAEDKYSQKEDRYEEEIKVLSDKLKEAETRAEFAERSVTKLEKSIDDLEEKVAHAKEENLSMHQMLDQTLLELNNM
Protocol: (A), 0, 10, 20, 40, 80 and 160 micromolar (μM) of rhEndostatin were injected at 5 microliters per minute (μl/minute) for 960 seconds through a biosensor flow cell that had been activated and blocked as a control for bulk refractive index and subsequently through a flow cell to which 3200 response units (RU) of rhTM3 had been immobilized. The binding kinetics were recorded and the differences between the two curves plotted for each rhEndostatin concentration. (B), 0, 11.5, 23 and 46 micromolar (μM) of rhAngiostatin were injected at 5 microliters per minute (μl/minute) for 900 seconds over a flow cell containing 3200 RU of rhTM3 as above. Samples were run in duplicate, the data corrected for bulk shift and the average of the 2 curves plotted. (C), Injection of 5 micromolar (μM) of rhEndostatin at 5 microliters per minute (μl/minute) for 240 seconds in the presence of 0, 6, 15, 30 and 45 micromolar (μM) of soluble rhTM3 over a flow cell containing 2000 RU of rhTM3. Samples were run in duplicate, the reference cell values subtracted and the average of each of the 2 curves plotted. The spikes in RU seen at the beginning and end of each injection are due to lag in flow caused by the rhTM3 and reference cells being non-adjacent.
Interactions between purified soluble rhEndostatin and rhTM3 were evaluated by surface plasmon resonance using the BIAcore 3000 (BiaCore, Piscataway, N.J.). The purified rhTM3 was immobilized on the flow cell of a CM-5 BIAcore biosensor chip. The running buffer was 0.01 M HEPES, pH 7.4, 0.15M NaCl and 0.005% polysorbate 20 (v/v). The competition experiments involving soluble rhTM3 were performed using PBS pH 7.4 as running buffer. All measurements were performed at 25° C. To correct for differences in bulk refraction all protein preparations were passed over an activated and blocked flow cell to which no protein had been coupled. Effects due to bulk shift were subtracted from experimental data.
Surface plasmon resonance performed using the BIAcore 3000 (BiaCore, Piscataway, N.J.) was used to assess the kinetics of rhEndostatin/rhTM3 binding. […]

B16-BL6 melanoma cells [5] = assay: B16-BL6 experimental metastasis assay; assay type: in vivo, C57BL/6J mice
Protocol: C57BL/6J mice were injected via the tail vein with 5×10^4 B16-BL6 melanoma cells on day 0. On day 3, groups of five mice received daily subcutaneous doses of either buffer control, 1.5 nmol (1.5 mg/kg/day) of rhEndostatin in combination with 0, 15, 75 or 375 nmol of control or E37 peptide, or control or E37 peptide alone for eleven days. All mice were sacrificed on day 14, and the number of pulmonary surface metastases in each animal counted. Error bars indicate standard deviation of the mean.
C57BL/6J mice (n=8) were injected intravenously (i.v.) with 5×10^4 B16-BL6 cells/mouse. Three days later treatment commenced. 100 μl of citrate-phosphate buffer (66 mM Sodium Phosphate, 17 mM Citric acid, 59 mM NaCl pH 6.2) containing 1.5 nmol of rhEndostatin and 100 μl of PBS containing either 0, 15, 75 or 375 nmol of control or E37 peptide were mixed and injected subcutaneously (s.c.) daily for 11 days. All mice were then sacrificed, their lungs removed and the number of surface metastases counted. Results were analyzed for statistical significance using the 2-tailed Student's t-test.
The following experiment was conducted to determine the interaction of E37 peptide and Endostatin protein. Briefly, the B16BL6 experimental metastasis assay, as known to those of skill in the art and further described in International Patent Application number PCT/US99/11418, was performed as follows. 5×10^4 B16-BL6 cells in 200 μl of PBS were injected into C57BL/6J mice via the tail vein. Three days post injection treatment was started. The injection received by eight groups of mice were: 1) citrate phosphate/PBS buffer, 2) ^30 μg Endostatin protein (in 100 μl PBS), 3) 30 μg Endostatin protein (in 200 μl PBS), 4) 30 μg Endostatin protein plus 50 times molar excess of control peptide (in 200 μl PBS), 5) 30 μg Endostatin protein plus 250 times molar excess of control peptide (in 200 μl PBS), 6) 30 μg Endostatin protein plus 10 times molar excess of E37 peptide (in 200 μl PBS), 7) 30 μg Endostatin protein plus 50 times molar excess of E37 peptide (in 200 μl PBS), and 8) 30 μg Endostatin protein plus 250 times molar excess of E37 peptide (in 200 μl PBS). Doses were administered daily for eleven days posterior to the thoracic cavity subcutaneously. All mice were sacrificed, the lungs removed and the number of surface metastases in each animal were counted under a stereo microscope.

B1: rhEndostatin: recombinant human Endostatin, antiangiogenic fragment of a C-terminal non-collagenous region of a collagen protein, produced in P. pastoris (protein)
chain: HSHRDFQPVLHLVALNSPLSGGMRGIRGADFQCFQQARAVGLAGTFRAFLSSRLQDLYSIVRRADRAAVPIVNLKDELLFPSWEALFSGSEGPLKPGARIFSFDGKDVLRHPTWPQKSVWHGSDPNGRRLTESYCETWRTEAPSATGQASSLLGGRLLGQSAASCHHAYIVLCIENSFMTASK
[1]
  differentiation of pericytes to fibroblasts: does not appear to affect
[1]; effect on cells early in the pericyte/fibroblast differentiation pathway
  reduction of the final cell number: 70-80%
[1]; stimulated with PDGF-BB or 20% fetal calf serum
  thymidine incorporation into primary cultures of pericytes: consistent reduction in thymidine incorporation
Wound healing
  effect on wound healing: remained unaffected
Mammary tumor
  time after injection at which the tumor could be visualized: 0.5 to 4 h
B16-BL6 melanoma cells [2]
  inhibition of lung metastases inferred from dose titration of rhEndostatin (Sim et al): 77%
[3]
  circulating levels: nM range
[4]
  Kd: ~100 µM
B16-BL6 melanoma cells [5]; 1.5 nmol rhEndostatin co-administered with 250-fold molar excess of E37 peptide
  inhibition of lung metastasis: 11%
B16-BL6 melanoma cells [5]; 30 μg Endostatin protein alone, daily s.c. for eleven days
  inhibition of the formation of lung metastasis: approximately 79%
B16-BL6 melanoma cells [5]; 30 μg Endostatin protein plus 10 fold molar excess of E37 peptide
  inhibition of the formation of lung metastasis: approximately 76%
B16-BL6 melanoma cells [5]; 30 μg Endostatin protein plus 50 fold molar excess of E37 peptide
  inhibition of the formation of lung metastasis: approximately 61%
B16-BL6 melanoma cells [5]; 30 μg Endostatin protein plus 50 fold molar excess of negative control peptide
  inhibition of the formation of lung metastasis: approximately 79%
B16-BL6 melanoma cells [5]; 30 μg Endostatin protein plus 250 fold molar excess of E37 peptide
  inhibition of the formation of lung metastasis: approximately 21%
B16-BL6 melanoma cells [5]; 30 μg Endostatin protein plus 250 fold molar excess of negative control peptide
  inhibition of the formation of lung metastasis: approximately 73%
B16-BL6 melanoma cells [5]; daily 1.5 nmol rhEndostatin (1.5 mg/kg/day)
  inhibition of growth of experimental B16-BL6 lung metastases compared to buffer treated control mice: greater than 70%
